Experimental findings from patent US20230235012A1 (ALPINE IMMUNE SCIENCES, published 2023) are described below.

T1: human ICOS (human, UniProt Q9Y6W8 21-199)
T1 construct: whole, on cells
T1 sequence (looked up): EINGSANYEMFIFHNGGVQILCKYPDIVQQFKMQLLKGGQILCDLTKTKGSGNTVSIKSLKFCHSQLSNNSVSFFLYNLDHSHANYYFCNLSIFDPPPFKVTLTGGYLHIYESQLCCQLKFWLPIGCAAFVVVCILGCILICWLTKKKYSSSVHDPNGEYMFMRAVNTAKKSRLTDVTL

T2: human ICOS, full-length, expressed on transfected Expi293 cells (human, UniProt Q9Y6W8 21-199)
T2 construct: whole, on cells
T2 sequence (looked up): T1 sequence (looked up)

B1: ICOSL ECD Truncation #5 with N52H/N57Y/Q100R/C198R, Fc fusion (Fc fusion)
chain: DTQEKEVRAMVGSDVELSCACPEGSRFDLNDVYVYWQTSESKTVVTYHIPQHSSLEYVDSRYRNRALMSPAGMLRGDFSLRLFNVTPQDEQKFHCLVLSRSLGFQEVLSVEVTLHVAANFSVPVVSAPHSPSQDELTFTCTSINGYPRPNVYWINKTDNSLLDQALQNDTVFLNMRGLYDVVSVLRIARTPSVNIGCRIENVLLQQGGGGSGGGGSEPKSSDKTHTCPPCPAPEAEGAPSVFLFPPKPKDTLMISRTPEVTCVVVDVSHEDPEVKFNWYVDGVEVHNAKTKPREEQYNSTYRVVSVLTVLHQDWLNGKEYKCKVSNKALPAPIEKTISKAKGQPREPQVYTLPPSREEMTKNQVSLTCLVKGFYPSDIAVEWESNGQPENNYKTTPPVLDSDGSFFLYSKLTVDKSRWQQGNVFSCSVMHEALHNHYTQKSLSLSPG
notes: not restated for the C198R set
B2: ICOSL IgV with N52H/N57Y/Q100R and H48R/S54P, Fc fusion (Fc fusion)
chain: DTQEKEVRAMVGSDVELSCACPEGSRFDLNDVYVYWQTSESKTVVTYRIPQHSPLEYVDSRYRNRALMSPAGMLRGDFSLRLFNVTPQDEQKFHCLVLSRSLGFQEVLSVEVTLHVAANFSVGGGGSGGGGSEPKSSDKTHTCPPCPAPEAEGAPSVFLFPPKPKDTLMISRTPEVTCVVVDVSHEDPEVKFNWYVDGVEVHNAKTKPREEQYNSTYRVVSVLTVLHQDWLNGKEYKCKVSNKALPAPIEKTISKAKGQPREPQVYTLPPSREEMTKNQVSLTCLVKGFYPSDIAVEWESNGQPENNYKTTPPVLDSDGSFFLYSKLTVDKSRWQQGNVFSCSVMHEALHNHYTQKSLSLSPG
B3: ICOSL ECD with N52H/N57Y/Q100R/C198R, Fc fusion (Table 30C) (Fc fusion)
chain: DTQEKEVRAMVGSDVELSCACPEGSRFDLNDVYVYWQTSESKTVVTYHIPQHSSLEYVDSRYRNRALMSPAGMLRGDFSLRLFNVTPQDEQKFHCLVLSRSLGFQEVLSVEVTLHVAANFSVPVVSAPHSPSQDELTFTCTSINGYPRPNVYWINKTDNSLLDQALQNDTVFLNMRGLYDVVSVLRIARTPSVNIGCRIENVLLQQNLTVGSQTGNDIGERDKITENPVSTGEKNAATGGGGSGGGGSEPKSSDKTHTCPPCPAPEAEGAPSVFLFPPKPKDTLMISRTPEVTCVVVDVSHEDPEVKFNWYVDGVEVHNAKTKPREEQYNSTYRVVSVLTVLHQDWLNGKEYKCKVSNKALPAPIEKTISKAKGQPREPQVYTLPPSREEMTKNQVSLTCLVKGFYPSDIAVEWESNGQPENNYKTTPPVLDSDGSFFLYSKLTVDKSRWQQGNVFSCSVMHEALHNHYTQKSLSLSPG
notes: as for B1
B4: ICOSL ECD Truncation #6 with N52H/N57Y/Q100R/F172S, Fc fusion (Fc fusion)
chain: DTQEKEVRAMVGSDVELSCACPEGSRFDLNDVYVYWQTSESKTVVTYHIPQHSSLEYVDSRYRNRALMSPAGMLRGDFSLRLFNVTPQDEQKFHCLVLSRSLGFQEVLSVEVTLHVAANFSVPVVSAPHSPSQDELTFTCTSINGYPRPNVYWINKTDNSLLDQALQNDTVSLNMRGLYDVVSVLRIARTPSVNIGCCIENVLLGGGGSGGGGSEPKSSDKTHTCPPCPAPEAEGAPSVFLFPPKPKDTLMISRTPEVTCVVVDVSHEDPEVKFNWYVDGVEVHNAKTKPREEQYNSTYRVVSVLTVLHQDWLNGKEYKCKVSNKALPAPIEKTISKAKGQPREPQVYTLPPSREEMTKNQVSLTCLVKGFYPSDIAVEWESNGQPENNYKTTPPVLDSDGSFFLYSKLTVDKSRWQQGNVFSCSVMHEALHNHYTQKSLSLSPG
B5: ICOSL ECD Truncation #6 with N52H/N57Y/Q100R/C198R, Fc fusion (Fc fusion)
chain: B4 chain with S172F, C198R
notes: as for B1
B6: ICOSL ECD Truncation #8 with N207G/L208G and N52H/N57Y/Q100R/F172S, Fc fusion (Fc fusion)
chain: DTQEKEVRAMVGSDVELSCACPEGSRFDLNDVYVYWQTSESKTVVTYHIPQHSSLEYVDSRYRNRALMSPAGMLRGDFSLRLFNVTPQDEQKFHCLVLSRSLGFQEVLSVEVTLHVAANFSVPVVSAPHSPSQDELTFTCTSINGYPRPNVYWINKTDNSLLDQALQNDTVSLNMRGLYDVVSVLRIARTPSVNIGCCIENVLLQQGGTGGGGSGGGGSEPKSSDKTHTCPPCPAPEAEGAPSVFLFPPKPKDTLMISRTPEVTCVVVDVSHEDPEVKFNWYVDGVEVHNAKTKPREEQYNSTYRVVSVLTVLHQDWLNGKEYKCKVSNKALPAPIEKTISKAKGQPREPQVYTLPPSREEMTKNQVSLTCLVKGFYPSDIAVEWESNGQPENNYKTTPPVLDSDGSFFLYSKLTVDKSRWQQGNVFSCSVMHEALHNHYTQKSLSLSPG
B7: ICOSL ECD Truncation #4 with N52H/N57Y/Q100R/F172S and E200G, Fc fusion (Fc fusion)
chain: DTQEKEVRAMVGSDVELSCACPEGSRFDLNDVYVYWQTSESKTVVTYHIPQHSSLEYVDSRYRNRALMSPAGMLRGDFSLRLFNVTPQDEQKFHCLVLSRSLGFQEVLSVEVTLHVAANFSVPVVSAPHSPSQDELTFTCTSINGYPRPNVYWINKTDNSLLDQALQNDTVSLNMRGLYDVVSVLRIARTPSVNIGCCIGNVLLQQNGGGGSGGGGSEPKSSDKTHTCPPCPAPEAEGAPSVFLFPPKPKDTLMISRTPEVTCVVVDVSHEDPEVKFNWYVDGVEVHNAKTKPREEQYNSTYRVVSVLTVLHQDWLNGKEYKCKVSNKALPAPIEKTISKAKGQPREPQVYTLPPSREEMTKNQVSLTCLVKGFYPSDIAVEWESNGQPENNYKTTPPVLDSDGSFFLYSKLTVDKSRWQQGNVFSCSVMHEALHNHYTQKSLSLSPG
B8: ICOSL ECD Truncation #7 with N52H/N57Y/Q100R/C198R and E90K/E111G, Fc fusion (Fc fusion)
chain: DTQEKEVRAMVGSDVELSCACPEGSRFDLNDVYVYWQTSESKTVVTYHIPQHSSLEYVDSRYRNRALMSPAGMLRGDFSLRLFNVTPQDKQKFHCLVLSRSLGFQEVLSVGVTLHVAANFSVPVVSAPHSPSQDELTFTCTSINGYPRPNVYWINKTDNSLLDQALQNDTVFLNMRGLYDVVSVLRIARTPSVNIGCRIENGGGGSGGGGSEPKSSDKTHTCPPCPAPEAEGAPSVFLFPPKPKDTLMISRTPEVTCVVVDVSHEDPEVKFNWYVDGVEVHNAKTKPREEQYNSTYRVVSVLTVLHQDWLNGKEYKCKVSNKALPAPIEKTISKAKGQPREPQVYTLPPSREEMTKNQVSLTCLVKGFYPSDIAVEWESNGQPENNYKTTPPVLDSDGSFFLYSKLTVDKSRWQQGNVFSCSVMHEALHNHYTQKSLSLSPG
notes: as for B1
B9: ICOSL ECD Truncation #7 with N52H/N57Y/Q100R/F172S and F83S, Fc fusion (Fc fusion)
chain: B8 chain with F83S, K90E, G111E, F172S, R198C
B10: variant ICOSL IgV-Fc fusion N52H/N57Y/Q100R (Fc fusion, not shown: a dimerising Fc or GST)
chain: DTQEKEVRAMVGSDVELSCACPEGSRFDLNDVYVYWQTSESKTVVTYHIPQHSSLEYVDSRYRNRALMSPAGMLRGDFSLRLFNVTPQDEQKFHCLVLSRSLGFQEVLSVEVTLHVAANFSV
B11: ICOSL ECD N52H/N57Y/Q100P - no linker - Fc C220S/L234A/L235E/G237A (Fc fusion)
chain: DTQEKEVRAMVGSDVELSCACPEGSRFDLNDVYVYWQTSESKTVVTYHIPQHSSLEYVDSRYRNRALMSPAGMLRGDFSLRLFNVTPQDEQKFHCLVLSPSLGFQEVLSVEVTLHVAANFSVPVVSAPHSPSQDELTFTCTSINGYPRPNVYWINKTDNSLLDQALQNDTVFLNMRGLYDVVSVLRIARTPSVNIGCCIENVLLQQNLTVGSQTGNDIGERDKITENPVSTGEKNAATEPKSSDKTHTCPPCPAPEAEGAPSVFLFPPKPKDTLMISRTPEVTCVVVDVSHEDPEVKFNWYVDGVEVHNAKTKPREEQYNSTYRVVSVLTVLHQDWLNGKEYKCKVSNKALPAPIEKTISKAKGQPREPQVYTLPPSREEMTKNQVSLTCLVKGFYPSDIAVEWESNGQPENNYKTTPPVLDSDGSFFLYSKLTVDKSRWQQGNVFSCSVMHEALHNHYTQKSLSLSPGK
notes: direct fusion, linker 'none'
B12: ICOSL ECD N52H/N57Y/Q100R/F172S - no linker - Fc C220S/L234A/L235E/G237A (Fc fusion)
chain: B11 chain with P100R, F172S
notes: direct fusion, linker 'none'

Substitutions are numbered along the chain they refer to. In names and notes the source's numbering stands.

T3 sequence (P16410 36-223): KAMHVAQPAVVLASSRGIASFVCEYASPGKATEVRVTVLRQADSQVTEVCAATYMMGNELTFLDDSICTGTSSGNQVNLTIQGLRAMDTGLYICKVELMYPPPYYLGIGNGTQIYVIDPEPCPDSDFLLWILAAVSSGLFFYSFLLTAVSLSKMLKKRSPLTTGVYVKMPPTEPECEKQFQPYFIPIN

One assay addresses T1, human ICOS. The assay can be described thus: flow cytometry, transfected cells; protein from CHO.
Take B1: the MFI was 110000 MFI and the “MFI ratio to WT” value worked out at 1.1 fold.
In the case of B2, the MFI worked out at 143000 MFI and the “MFI ratio to WT” value worked out at 1.4 fold.
As for B3, the MFI was 139000 MFI and the “MFI ratio to WT” value amounted to 1.4 fold.
The corresponding values for B4 are 90100 MFI and 0.9 fold.
Taken in the same sequence, the figures for B5 were 91400 MFI and 0.9 fold.
On to B6, for which the MFI was determined as 133000 MFI and the “MFI ratio to WT” value came to 1.3 fold.
The corresponding values for B7 are 108000 MFI and 1.1 fold.
In the case of B8, the MFI came out at 54600 MFI and the “MFI ratio to WT” value worked out at 0.5 fold.
As for B9, the MFI came out at 106000 MFI and the “MFI ratio to WT” value stood at 1.1 fold.

The next assay concerns the target T3, human CTLA-4 (human, UniProt P16410 36-223).
T3 construct: whole, on cells
The assay is described as above.
Turning to B1, the MFI amounted to 216000 MFI and the “MFI ratio to WT” value amounted to 28.5 fold.
The corresponding values for B2 are 322000 MFI and 42.4 fold.
Taken in the same sequence, the figures for B3 were 133000 MFI and 17.5 fold.
Taken in the same sequence, the figures for B4 were 240000 MFI and 31.6 fold.
For B5, the MFI is 236000 MFI and the “MFI ratio to WT” value amounted to 31.1 fold.
The corresponding values for B6 are 308000 MFI and 40.7 fold.
With B7, the MFI turned out to be 320000 MFI and the “MFI ratio to WT” value came out at 42.3 fold.
Taken in the same sequence, the figures for B8 were 83700 MFI and 11 fold.
The corresponding values for B9 are 207000 MFI and 27.3 fold.

The target in the next assay is T4, human CD28 (human, UniProt P10747 19-220).
T4 construct: whole, on cells
The description is as above.
On to B1, for which the MFI was found to be 86300 MFI and the “MFI ratio to WT” value came out at 50 fold.
Taken in the same sequence, the figures for B2 were 75300 MFI and 43.6 fold.
In the case of B3, the MFI amounted to 59200 MFI and the “MFI ratio to WT” value is 34.3 fold.
On to B4, for which the MFI was 91300 MFI and the “MFI ratio to WT” value is 52.8 fold.
The corresponding values for B5 are 84600 MFI and 49 fold.
B6: the MFI was found to be 108000 MFI and the “MFI ratio to WT” value was found to be 62.4 fold.
For B7, the MFI is 80600 MFI and the “MFI ratio to WT” value is 46.6 fold.
Taken in the same sequence, the figures for B8 were 38900 MFI and 22.5 fold.
The corresponding values for B9 are 88300 MFI and 51.1 fold.

The target of a further assay is T2, human ICOS, full-length, expressed on …. The assay can be described thus: flow cytometry, 100 nM, Expi293 cells with human ICOS.
On to B10, for which the MFI came to 200000 MFI and the “MFI ratio to WT (ΔWT)” value amounted to 0.94 fold.

In another assay the target is T5, human CD28, full-length, expressed on transfected Expi293 cells (human, UniProt P10747 19-220).
T5 construct: whole, on cells
The assay can be described thus: flow cytometry, 100 nM, Expi293 cells with human CD28.
In the case of B10, the MFI came out at 142000 MFI and the “MFI ratio to WT (ΔWT)” value was 6.4 fold.

The target in the next assay is T6, human CTLA-4, full-length, expressed on transfected Expi293 cells (human, UniProt P16410 36-223).
T6 construct: whole, on cells
T6 sequence (P16410 36-223): as above
The assay can be described thus: flow cytometry, 100 nM, Expi293 cells with human CTLA-4.
As to B10, the MFI came out at 817000 MFI and the “MFI ratio to WT (ΔWT)” value was 2.47 fold.

The next assay deals with T1, human ICOS. The assay can be described thus: flow cytometry, transfected Expi293 cells.
B11: the MFI stood at 97700 MFI.
For the molecule B12, the MFI was 106000 MFI.
